Reference: patent publication US20140212888A1

Target: WT1 (mutant) peptide presented by HLA-A*24:02 on HLA-A*24:02 positive LCL (human)
Test: cell-based or functional assay

B1: 37F8-derived TCR, WT1 TCR A12-3/B5-1 (TCR α-chain TRAV12-3/TRAJ52/TRAC, TCR β-chain TRBV5-1/TRBD2/TRBJ2-5/TRBC2) (TCR)
TCR alpha: WVWSQQKEVEQDPGPLSVPEGAIVSLNCTYSNSAFQYFMWYRQYSRKGPELLMYTYSSGNKEDGRFTAQVDKSSKYISLFIRDSQPSDSATYLCATSNAGGTSYGKLTFGQGTILTVHPNIQNPDPAVYQLRDSKSSDKSVCLFTDFDSQTNVSQSKDSDVYITDKTVLDMRSMDFKSNSAVAWSNKSDFACANAFNNSIIPEDTFFPSPESSCDVKLVEKSFETDTNLNFQNLSVIGFR
TCR beta: GPVKAGVTQTPRYLIKTRGQQVTLSCSPISGHRSVSWYQQTPGQGLQFLFEYFSETQRNKGNFPGRFSGRQFSNSRSEMNVSTLELGDSALYLCASSYGERERKGETQYFGPGTRLLVLEDLKNVFPPEVAVFEPSEAEISHTQKATLVCLATGFYPDHVELSWWVNGKEVHSGVSTDPQPLKEQPALNDSRYCLSSRLRVSATFWQNPRNHFRCQVQFYGLSENDEWTQDRAKPVTQIVSAEAWGRADCGFTSESYQQGVLSATILYE
cytotoxic activity (%): 73%
